According to PMC4769169 (eLife, 2016):
Blank lines part the entries; values can stand above or below the molecule they belong to.

Experiments:
Rabin8 (Rab3IP) 144-460 = Rabin8 (Rab3IP) 144-460 (UniProt Q96QF0); assay: Ni2+-NTA pull-down by His-Rabin8; conditions: reference: non-phosphorylated Rab8a; sites T72
LRRK2 = target: T1, LRRK2 (Homo sapiens, UniProt Q5S007, G2019S); assay: in vitro kinase assay with recombinant LRRK2 and Rab10, inhibitor at […]; format: biochemical
T1 construct: GST-LRRK2 (residues 960-2527)

[1] = target: HIS-tagged Rabin8 (residues 144-460) (human) (UniProt Q96QF0)
Chain of HIS-tagged Rabin8 (residues 144-460) (human) (Q96QF0 144-460): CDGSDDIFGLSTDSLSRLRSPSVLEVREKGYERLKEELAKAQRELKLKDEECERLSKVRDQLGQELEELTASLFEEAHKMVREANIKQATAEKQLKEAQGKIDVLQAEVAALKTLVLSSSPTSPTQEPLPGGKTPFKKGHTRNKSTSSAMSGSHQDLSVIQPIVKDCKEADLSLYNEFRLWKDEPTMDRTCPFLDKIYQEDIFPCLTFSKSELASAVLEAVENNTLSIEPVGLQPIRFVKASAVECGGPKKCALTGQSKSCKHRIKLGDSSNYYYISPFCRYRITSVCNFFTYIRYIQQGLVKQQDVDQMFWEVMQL

T1 sequence (Q5S007 960-2527 G2019S): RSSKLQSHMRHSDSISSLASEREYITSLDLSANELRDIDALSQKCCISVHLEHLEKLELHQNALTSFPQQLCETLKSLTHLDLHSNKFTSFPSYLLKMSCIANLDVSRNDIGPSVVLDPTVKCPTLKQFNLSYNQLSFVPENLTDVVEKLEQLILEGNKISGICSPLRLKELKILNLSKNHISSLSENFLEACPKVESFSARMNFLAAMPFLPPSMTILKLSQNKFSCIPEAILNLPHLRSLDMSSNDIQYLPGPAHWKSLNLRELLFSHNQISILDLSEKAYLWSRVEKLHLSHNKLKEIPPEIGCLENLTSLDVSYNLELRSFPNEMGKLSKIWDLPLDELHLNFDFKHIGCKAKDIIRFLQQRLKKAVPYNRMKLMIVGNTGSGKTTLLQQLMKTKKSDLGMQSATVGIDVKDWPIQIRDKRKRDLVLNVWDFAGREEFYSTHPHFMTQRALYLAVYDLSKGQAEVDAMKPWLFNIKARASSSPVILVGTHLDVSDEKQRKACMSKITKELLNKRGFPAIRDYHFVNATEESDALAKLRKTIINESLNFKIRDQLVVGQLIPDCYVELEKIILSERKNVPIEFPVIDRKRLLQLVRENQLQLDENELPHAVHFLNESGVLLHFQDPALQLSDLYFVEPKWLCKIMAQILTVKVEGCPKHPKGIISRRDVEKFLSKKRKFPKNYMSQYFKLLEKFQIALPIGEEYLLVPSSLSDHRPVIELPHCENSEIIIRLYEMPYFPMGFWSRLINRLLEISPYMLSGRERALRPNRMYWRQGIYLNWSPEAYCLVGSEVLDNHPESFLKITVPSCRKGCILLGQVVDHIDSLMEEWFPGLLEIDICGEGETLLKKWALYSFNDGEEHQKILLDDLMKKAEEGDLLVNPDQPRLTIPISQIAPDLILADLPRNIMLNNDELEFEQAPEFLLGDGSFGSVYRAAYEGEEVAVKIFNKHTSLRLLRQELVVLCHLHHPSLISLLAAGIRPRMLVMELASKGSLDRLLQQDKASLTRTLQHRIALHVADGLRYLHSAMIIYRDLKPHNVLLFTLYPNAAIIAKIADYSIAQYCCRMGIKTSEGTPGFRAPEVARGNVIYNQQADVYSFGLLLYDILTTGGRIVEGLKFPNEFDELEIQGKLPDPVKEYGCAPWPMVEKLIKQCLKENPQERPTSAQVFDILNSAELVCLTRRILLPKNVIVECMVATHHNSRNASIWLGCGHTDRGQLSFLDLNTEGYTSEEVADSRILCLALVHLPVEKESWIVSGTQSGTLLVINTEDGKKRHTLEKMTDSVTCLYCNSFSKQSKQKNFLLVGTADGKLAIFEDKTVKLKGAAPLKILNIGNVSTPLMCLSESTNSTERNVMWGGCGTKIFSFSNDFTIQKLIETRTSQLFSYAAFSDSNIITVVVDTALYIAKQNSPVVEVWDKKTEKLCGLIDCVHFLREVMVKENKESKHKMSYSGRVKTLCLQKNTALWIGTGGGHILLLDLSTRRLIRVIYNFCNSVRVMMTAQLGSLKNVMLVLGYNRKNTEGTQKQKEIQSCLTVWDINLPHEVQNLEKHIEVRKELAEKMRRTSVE

binding against the reference (Rabin8 (Rab3IP) 144-460): weaker
Molecule: Rab8a 1-183 (from UniProt P61006) LRRK2-G2019S-phosphorylated, ion-exchange-enriched pT72-Rab8a

Molecule: O=C(Nc1cccnc1)c1cc(-c2ccnc(F)c2)ccc1OCc1ccccc1 [GSK2578215A]
in vitro kinase assay with recombinant LRRK2 and Rab10, inhibitor at 2 μM (LRRK2): Inhibition of LRRK2-G2019S by GSK2578215A or HG-10-102-01 prevents phosphorylation.

rate of Rabin8-catalyzed mant-GDP exchange (GEF assay with Rabin8 144-245, 2 μM), T72-phosphorylated against non-phosphorylated Rab8a (1-183): inhibition [1]: 4 fold
Molecule: Rab8a (1-183) quantitatively phosphorylated pT72 (from UniProt P61006 1-183) (domain or fragment)
